In assay [1] the target is ParE2 toxin of Mycobacterium tuberculosis H37Rv (Mycobacterium tuberculosis H37Rv) (UniProt P9WHG5). The assay is described as follows: SEC.
Assay [2] shares this target. The assay is described as follows: crystal structure.

As for “ParD2 antitoxin of Mycobacterium tuberculosis H37Rv (natural protein)”, the stoichiometry N (ParD2 per ParE2 (2:2 heterotetramer)) in assay [1] is 1. Also, the stoichiometry N (ParD2 per ParE2 (1:1 heterodimer)) in assay [2] turned out to be 1.

Values taken from paper PMC10899793, “Toxin release by conditional remodelling of ParDE1 from Mycobacterium tuberculosis leads to gyrase inhibition” (Nucleic Acids Research, 2023).
